Here are results for 13 sequences from the DeepSol protein solubility set.

This data set in a line: soluble on expression in E. coli; label from the status in PepcDB or PDB records.
Regarding “MRELVVIFGLSGSGKSFLASILHEKCGYEWLRSDVIRKQLAGLKPEESAKADYGKGIYTKEITKKVYEEMVKRAKELIDRGKKVVLDATFIKRWQRELVLKNFKDPFFILAFAPEEVIKERLKSRKDVSDADWNIYLKQKEEFEAPEEIDYCVINTNKSKEELESRLKKLLGCQLK”, the “soluble on expression in E. coli” value is listed as “not soluble”.

Regarding “MAPRKRSHHGLGFLCCFGGSDIPEINLRDNHPLQFMEFSSPISNAEELNIRFAELVDELDLTDKNREAMFALPPEKKWQIYCSKKKVPSLTPLATSQGSWHGVALAALACSCIHLMFITCQPCSRCWRNNSE”, the “soluble on expression in E. coli” value is given as “soluble”. With “MSLLLIVAGHDPTGAGLRADIATAEALGVPAVSLPTLLSLQDEGVELVEPVDSRFMSDCLARYVPRCEVVKVGAVPTLKTFEILAKRLRDLTVVWDPVFRAEAGGELSEATPEEALETFGETVDILTPNTEELSQLVGREVRTTVEAELAARELVEEYGLTGVLVTGGHSVDRRDVWVPAEGNTIAWEVPPGEGAHGSGCVLSTALACFLVRGLDPETAVERAVRFARAAVREARNTPFGRVADPVAQIRRDATLGKATQHVIRALEIIESDPAFARAIPQVGMNVAEVFDPSRGLEGVVGLSGRIVLDGDRPTAVGRPVPGGSKHVGTVALTAHRLDPSVRAAVNARYDEELIERARDLGFVVSSFDRSEEPEEVDSTMEWGTEVAFRRADDTPDVVYDEGDVGKEPMIRVLGKSAVEAVTKLRMLLGCVVGEGHHHHHH”, the “soluble on expression in E. coli” value is on record as “soluble”. Under “MGSDKIHHHHHHMDVWKVLGRYSNVLVLSKKNSILILEINGKAPKPGESVRVWNNRVMTGKELKAKLLAHFDEELSLKVLKVPGLLEFLHDISRGFDKKYVHFVKLFVKHLVPSRFLKMNNEEKKIIMKSFPEVFESGPSSVRIRFSVKSFFEYVQKNFPINRNINEEALRRTVTLKRPILSTEEYDVYQMNEPLSKGFAGKNYMALPLSGKYLIVVFRRRNFPFVEFKLKEEPDLTFFEDFVNDKVAVEKRENGWVLIWKDREMMEFELPDKELLPRPEKLVDDDLLDAVFLLNSLLEENVRFASMPSFGVQEMWWEKDNNRVILVVNTVRFGRVVADVILEGRSLSVRFYAEKNSEELSAHSEELQKEFERLGLIAHVFFLRKDPMNWEGFNAYG” stands “not soluble”; under “MGSDKIHHHHHHMALANFIDRAATAASQVLADFHLEDFKAALEKQVVAVAFDDQAASCAEGQATLDLAVRLLARLYPVLAILPLGSAASFQAQALERLAKSINPKVGIRRSGKSATICVVAGVTRPPLRCPTFFMGSDGWAAKLSRTDPVGSGSSLLPYGAGAASCFGAANVFRTIFAAQLTGAELDETIDLSLYSYDKTKAGEAGPIDIPVDLGETHLVGLGAIGHGSLWALARQPGLTGRLHVIDHEAIELSNLQRYVLAGQAEIGMSKAVLAATALRSTAIGVEAHPLTWAEYVARHGDWVFDRVGVALDTAADRLAVQGALPRWIANAWTQEHDLGISRHGFDDGQACLCCMYLPSGKSKDEHHLIAEELGIPEAHEQVKTLLQTNAGVPNDFVVRVATAMAVPFEPLAPFVGQPLRSFYQQAICGGLVFQLSDGSRRVRTVVPMAFQSALAGIMLAAELVKHSAGFPVGPTTSTRVNLLRPLGSRLHDPKAKDSSGRCICSDDDFIAAYRRKYGKSIVQLSDVSAA”, “not soluble”; under “MYKVDSPDAVDFINHQEIIETLEYARTHRNDRELIRNLIEKARLCKGLTHREAAILLECAEEDLTKEIFHLAKEIKQKFYGNRIVMFAPLYLSNYCVNGCVYCPYHLKNKTIIRKKLTQEEICREVIALQDMGHKRLALEAGEDPVRNSIDYILESIRTIYSIHHKNGAIRRVNVNIAATTVENYRKLKDAGIGTYILFQETYHKENYEQLHPTGPKSNYAYHTEAMDRAMQGGIDDVGMGVLFGLNTYRYDFVGLLMHAEHLEAVYGVGPHTISVPRICSADDINAEDFENAISDEIFQKIVAVIRISVPYTGMIISTRESQKTREKVLDLGISQISGGSRTSVGGYAEAETPEENSAQFDVSDTRTLDEVVNWLLKLGYIPSFCTACYRAGRTGDRFMSLVKSGQIANCCSPNALITLQEYLEDYASEETKARGVAMIKQEMQHIPNPKIRERALENLKQIAAGERDFRF”, “not soluble”. For “MTISLRRTGILKFGIGLVALTIAASVQAKTLVYCSEGSPEGFNPQLFTSGTTYDASSVPIYNRLVEFKIGTTEIEPSLAERWEVSEDGKTYTFYLRKGVKWQDNKDFKPTRDFNADDVIYSFMRQKDDKNPYHKVSGGSYEYFQGMGMGDLITNVVKVDDNTVRFELTRPESPFLADLAMDFASILSAEYADNMLKAGTPEKVDLNPIGTGPFQLQQYQKDSRILYKAFPGFWGTKPKIDRLVFSITPDASVRYAKLQKNECQIMPYPNPADIARMKEDKTINLMEQPGLNVGYLSFNIEKKPLDNLKVRQALTMAVNKDAIIDAVYQGAGQAAKNLIPPTMWGYNDDVKDYAYDPAKAKELLKEAGLPDGFSIDLWAMPVQRPYNPNARRMAEMIQSDWAKIGVKAKIVTYEWGEYLKRAKDGEHETVMMGWTGDNGDPDNFFATLFSCDAAKQGSNYSKWCYKPFEDLIQPARAEADHDKRVALYKQAQVVMNEQAPALIIAHSTVYEPVRKEVKGYVVDPLGKHHFDNVSLD”, the “soluble on expression in E. coli” value is recorded as “not soluble”. The result for “MFFMYFTNYGYRLNQIKKGSDQHWLFLPGGPGLGSEYLASFCDKLTLQGTVSLVDFPKDGNNSEGQLDFVSWQEGLISLLKSLNKPILVTHSFSGMFTLNFPEIENHLSGLVLMNTTTTNSFFQHVNEMRQKHNLPDLVPAASQYHLYPSNETYKKFWDTYKHYCFTQEELPIGEQMMELFAYNNESYHYAIEHFYNDFHYKWHPQTIPTMTIASELDYICPPAIFIQDKNFQCQNVINKVIYKAGHCPWILHLEQVQKCFDEFSGMIQEINIERIL” reads “not soluble”; that for “MADVPDQVDINVNVVEKPTGAIMFGAGYSDREGIILNGSIAQNNILGTGNFLSLQVNTGSVNKVISASFNNPYYTINGVSLGLEAFKRDINTRSLSSVGMFNTDTTGANIRFGIPVAENDIVSLGLGYEHTKIDLRDDSPQRFKDFVDQFGKTSNNLPITLSWARDRRNSAIWTTSGMTQRLFGEFGLPFGDLNYYKVSYEQRWFFPVTKMFTLMLNGEVGVGDGYSDKPLPFFKNFFAGGFNSVRGYNINTLGPRDSDDRVLGGSKRIVGNIEVLFPVPFMKEDKSVRLSAFADGGTIVNSFSGLGFDDFRYSAGLAATWISPMGPLKFSVAQPLNNQSGDKLQRFQFQFGQTFLEHHHHHH”, “soluble”.

Turning to “MEMVNAEAKQSVPLLTPYKMGRFNLSHRVVLAPLTRQKSYGSVPQPHAILYYSQRTSPGGFLIAEATGVSDTAQGYPDTPGIWTKEHVEAWKPIVDAVHAKGGIFFCQIWHVGRVSNRGFQPRRQAPISCTGKPIMPQMRANGIDEARFTPPRRLSIEEIPGIVNDFRLAARNAMEAGFDGVEIHGAHGYLIDQFMKDKVNDRTDEYGGSLQNRCKFALEVVDAVAKEIGPDRVGIRLSPFADYMESGDTNPEALGLYMVESLNKYGILYCHMIEPRMKTVGEIAACSHTLMPMREAFKGTFISAGGFTREDGNEAVAKGRTDLVAYGRWFLANPDLPKRFQLDAPLNKYNRSTFYTSDPVVGYTDYPSLESTA”, the “soluble on expression in E. coli” value was “soluble”. As to “MAHHHHHHMDGAYGMRTVLNSSRLEEEPKYTLNPADLPHSSMNANNMMNGAVLTNGYHTSDYVINRESYPPDMMPQFKIDQGGSAYNNTMPMNSIIHTDPNESINMQGMKTCLETTTGFDSYRNLMNYNNTQNTIQASQVPFHLDDYNSGADLMYMSHPHTGDNFSPDYLNNLRSTETDPMTYGNNFNIPNGQFNSMLGENNNYNSLPYSMPIFENMNNPQMYMQQMNSKQALSGPTQKMDHTCSIRKMPAVSKRKIKPKKFFPCC”, the “soluble on expression in E. coli” value is on record as “soluble”. Under “MGSDKIHHHHHHMAEFPASLLILNGKSTDNLPLREAIMLLREEGMTIHVRVTWEKGDAARYVEEARKFGVATVIAGGGDGTINEVSTALIQCEGDDIPALGILPLGTANDFATSVGIPEALDKALKLAIAGDAIAIDMAQVNKQTCFINMATGGFGTRITTETPEKLKAALGSVSYIIHGLMRMDTLQPDRCEIRGENFHWQGDALVIGIGNGRQAGGGQQLCPNALINDGLLQLRIFTGDEILPALVSTLKSDEDNPNIIEGASSWFDIQAPHDITFNLDGEPLSGQNFHIEILPAALRCRLPPDCPLLR” stands “not soluble”; under “MEFEFIKNTLLGEYAVRCNMEHQIVGRWLQEEIGQDLAKLKHVLTLIDKAEQSPAQEFLWTGREISLLVQGDEITVQENALAYESEHELETDFALYDSESIAACGREDFVALLTQWQSFIQNQGRF”, “not soluble”.
